Consider four molecules from paper PMC7316157 (Journal of the American Chemical Society, 2012).

The target in data set [1] is L-Ac-(FEFE)2-NH2. Description: ITC. A general note: ITC needs no label: the signal is the heat of the interaction.
Data set [2] concerns the molecule itself. Put plainly: TEM + CD + IR spectroscopy of fibrils.
Data set [3] deals with the molecule itself. Description: isotope-edited IR spectroscopy.
In data set [4] the target is T1, L-Ac-(FEFE)2-NH2.
T1 peptide: Ac-FEFEFEFE-NH2
Put plainly: ITC.

Where two headings read alike, the source gives them in different places.

As for D-Ac-(FKFK)2-NH2 (peptide), in the data set with L-Ac-(FEFE)2-NH2 [1], the dH was -31.6 kcal/mol.
Take Ac-FKFEFKFE-NH2 [L-Ac-(FKFE)2-NH2]: the binding result in data set [2] is “binds”.
Ac-F(1‑13C)KFEFKF(1‑13C)E-NH2 [L-Ac-(FKFE)2-NH2 doubly 1-13C-labeled at Phe 1/Phe 7]: the binding result in data set [3] is on record as “binds”.
In the data set with L-Ac-(FEFE)2-NH2 [4], Ac-FKFKFKFK-NH2 [L-Ac-(FKFK)2-NH2] had a dH of -40.9 ± 0.6 kcal/mol.
